Source: PMC9428403
“And” between values parts separate entries of the source, which are not always exact repeats. Identical values can stand only once.

What was measured:
[1] = target: PKM2 (endogenous, RAW264.7 macrophages) (mouse (endogenous in RAW264.7)) (UniProt P52480); assay: cross-linking; RAW264.7 cells pre-treated 1 h with Shikonin (0.5, 1, 2 μM) or not, challenged with LPS (250 ng/ml) + IFN-γ (100 ng/ml) for 24 h; cells cross-linked with disuccinimidyl suberate (500 nM as printed) 30 min at room temperature, quenched with Tris-HCl pH 7.5; lysates analysed by western blot for PKM2
[2] = target: mouse PKM2 (AA 1-531), recombinant (mouse) (UniProt P52480); assay: SEC; Superdex 200 increase 10/300 GL, 150 mM NaCl, 20 mM Tris-HCl; purified PKM2 incubated with or without Shikonin; dimer and tetramer mixture eluted at 13 ml

Sequence of PKM2 (endogenous, RAW264.7 macrophages), P52480 1-531 (enzyme; other documents disagree on this pair) (P52480 whole entry): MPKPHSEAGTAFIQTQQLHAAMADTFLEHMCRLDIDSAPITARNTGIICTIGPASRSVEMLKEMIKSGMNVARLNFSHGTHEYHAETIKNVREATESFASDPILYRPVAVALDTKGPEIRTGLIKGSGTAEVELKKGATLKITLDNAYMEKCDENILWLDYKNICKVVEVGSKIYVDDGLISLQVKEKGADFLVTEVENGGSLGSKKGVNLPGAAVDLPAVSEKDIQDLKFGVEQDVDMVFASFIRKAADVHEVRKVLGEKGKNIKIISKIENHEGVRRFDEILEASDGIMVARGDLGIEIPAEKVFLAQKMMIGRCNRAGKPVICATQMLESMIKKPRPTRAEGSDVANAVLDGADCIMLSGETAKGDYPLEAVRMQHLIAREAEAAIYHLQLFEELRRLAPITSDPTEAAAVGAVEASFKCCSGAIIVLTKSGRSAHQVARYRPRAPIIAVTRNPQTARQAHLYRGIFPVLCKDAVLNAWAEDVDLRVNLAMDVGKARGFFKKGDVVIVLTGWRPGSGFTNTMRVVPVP
Sequence of mouse PKM2 (AA 1-531), recombinant, P52480 1-531 (enzyme; other documents disagree on this pair) (P52480 whole entry, the tested form may be a part): as the sequence (P52480 whole entry) above

Substance	stoichiometry N [1]	stoichiometry N [2]
PKM2 (endogenous, RAW264.7 macrophages), P52480 1-531 (enzyme; other documents disagree on this pair)	4 and 2	–
mouse PKM2 (AA 1-531), recombinant, P52480 1-531 (enzyme; other documents disagree on this pair)	–	2 and 4
